The DeepSol protein solubility set

Test: soluble on expression in E. coli; label from the status in PepcDB or PDB records

Soluble on expression in E. coli, soluble:
AHHHHHHGSVERSKVRVLIAKPGLDGHDRGAKVVARALRDAGYEVIYTGIRQTPEQIVEAVIEEDVDVLGISILSGAHMVLIPKILKLLEEKGIKPGEDILVVAGGIIPPDDAEELKKMGVAEVFGPGTPLKTIIEFIDKNVEKLKKFRSST
GSEELLDLFNRQVTQEFTASQVYLSASIWFDQNDWEGMAAYMLAESAEEREHGLGFVDFANKRNIPIELQAVPAPVSCAEWSSPEDVWQSILELEQANTRSLLNLAEAASTCHDFAVMAFLNPFHLQQVNEEDKIGSILAKVTDENRTPGLLRSLDVVSFLGPCLFRS
MGSSHHHHHHSSGLVPRGSHMKAIALISGGKDSFLSAYIAMQQGFDIVRAMIVRPQEYSYMFHFPNVDKAGYVAGMLGIEPEFVLEDGFQQRVKEYASDGVKAIVSGAIASEFQKTRLERIATEFSIISYTPLWKVDQHRVMRDILDAGIRAMIVSVSAEGFSENDLGREIDDKYLERLYHLEKRYGINITGEGGEYETFVFGFGNKYISVKGHRIWKGSGGYFNIDSVEERPDSC

Soluble on expression in E. coli, not soluble:
MGSDKIHHHHHHMKAANLAPCLMAMLLCTACEQLPIARKAPPPPPPATTAAKPAEQPRPTPIAAHDISLAGTCRRTEDDGFREDAVMRVVSNDVKSLKWKLWVSKRGTCQFDLADFKQVQKTPHIVLEATDGTQCKLLIWQDPRRVTLAHANCQQRCTPGIYEQAWPVLFNPRNGDCAEIR
MTHILFDSRRFLQLGAFASLSTALAGAARYVTSTSNNEPADNTPLTIGYVPIAGSAPIAIADALGLFKKHGVNVTLKKYSGWSDLWTAYATEQLDVAHMLSPMTVAINAGVTNASRPTELSFTQNTNGQAITLASKHYGSVNSAADLKGMVLGIPFEYSVHALLLRDYLVSNAVDPIADLELRLLRPADMVAQLTVEGIDGFIGPGPFNERAISNGSGRIWLLTKQLWDKHPCCAVAMAKEWKAEHPTAAQGVLNALEEASAILSNPAQFDSSARTLSQEKYLNQPATLLDGPS
MAKNFAEQIVESLENQGVKRIYGLVGDSLNPIVDAVRTSNIEWIHVRNEETAAFAAEAESLLTGELAVCAASCGPGNTHLVQGLYDANRNGAKVLAIASHIPSRQIGSHFFQETHPEALFAECSGYCEMANSALQGEVILHHAIQSTMAGKGVSVLVLPGDVTMQDVEDDTFTGSRISNARPIMYPDPAEAADLVKAINEAKTVTLFCGAGVRYARKEVLELAEKIKAPIGHALGGKMYIQYDNPFDVGMSGLLGYGACHDASNDADLLILLGTDFPYNDFLPRKNVAQIDIDGSHIGRRTRISHPVVGDVAATISNILPHIEEKTDRSFLDRMLKKHHRKLNDVIEAYTSGVEKHTPIHPEFVANIIDEIAADDAVFTIDTGMCNVWGARYITPNGKREMIGSFRHGTMANALPQAIGASAANPRRQVVTFSGDGGLGMLMGELLTVKLHNLPIKTVVFNNSSLGMVKLEMLVQGMPEHETDHEHVDFDAIAAAVGIEHIKITDPAKARQQLQAAFDYDGPVLIDIITDPNALSIPPNITMDMLMGFSRAATRTVFGGGVGHMVDMAKSNLRNIPKP
MGHHHHHHSHAKGKERQWLRHQATGELDDAKIIDGLTGEKAIYKRRGELEPQLGSPQQKPKRLRLVVDVSGSMYRFNRMDGRLERTMEAVCMVMEAFENYEEKFQYDIVGHSGDGYNIGLVPMNKIPKDNKQRLEILKTMHAHSQFCMSGDHTLEGTEHAIKEIVKEEADEYFVIVLSDANLSRYGIHPAKFAQILTRDPQVNAFAIFIGSLGDQATRLQRTLPAGRSFVAMDTKDIPQILQQIFTSTMLSSV
MGSDKIHHHHHHMKTVTRYACQKCGYQSAKWLGKCPDCAAWNSFVEEVTGGGRKGAASLPAATRPVPICDVASEAETRLSCGISEFDRVLGGGLVSGSLVLIGGDPGIGKSTILLQVMDHLARTAGPVLYVSGEESARQTKMRGERLGIGARELLVLAETSLELILSQVTALAPRALVIDSIQTVFSANLESAPGSVSQVRECAGRLMELAKRNGIPTLLVGHVTKDGSLAGPRVLEHMVDTVLYFEGDPGHAFRILRAVKNRFGSTNEIGVFEMKEGGLSEVRNPSELFLAERPLGVSGSAVVTTIEGSRPLLVELQALVTPSSLGVPRRTTLGVDHNRLALLVAVLDKKVGLHLSGQDIFLNAAGGARLSEPAIDLGMVAALASSHLDKIIDPHTVIVGEVGLAGEVRAITQAETRVREAAKLGFTRAVIPAGSVRQVGDVPGMNVVGVKSLDEALEQLF
